The values below come from the DeepSol protein solubility set.

This data set is described as follows: soluble on expression in E. coli; label from the status in PepcDB or PDB records.
Take “MSLNGLKRGFPVMKEQIGGKLICISGIPGTGKSTICNLLNDLGYTCVEGNALAVKYGCLSGDEVDVDCLSDRMRSDNFKGIVAAHYAHLLPCNIVIILEADESALRQRMMDRGYSPEKIDENLDAQRSDTIYAESLERLPANRIFRIRNADLNVALSDILRIIGGRNEGHHHHHH”: the “soluble on expression in E. coli” value is listed as “soluble”.
For “QKVTSLTACLVDQSLRLDCRHENTSSSPIQYEFSLTRETKKHVLFGTVGVPEHTYRSRTNFTSKYNMKVLYLSAFTSKDEGTYTCALHHSGHSPPISSQNVTVLRDKLVKCEGISLLAQNTSWLLLLLLSLSLLQATDFMSL”, the “soluble on expression in E. coli” value is “not soluble”.
Turning to “PMGDGTQVVFTTSLIPTEAIVQLDTKAPANSKQSPIFFISPIEGFASALEPLAKRLEVPAYGLQYTEAVPSDSLESAAKFFIKQLRTVQPKGPYKLAGYSFGCLLTYVMAGILEETNEVANVIMLDGAPSYVNWYTSSFKQRYTDGTNADNDNQSYGLAYFGIVLANIDYKALVRLLIVIPTWEEKLERFAELMSNEITQPVETIKKSATLFYKKLELADGYQPTLKLKTNVTLVKPTDNSAKLDEDYRLKEVCTKPVEVHTVEGNHRTFLIEDQSLKTIQSILKRL”, the “soluble on expression in E. coli” value was “soluble”.
Consider “MTHDNIDILVVDDDISHCTILQALLRGWGYNVALANSGRQALEQVREQVFDLVLCDVRMAEMDGIATLKEIKALNPAIPVLIMTAYSSVETAVEALKTGALDYLIKPLDFDNLQATLEKALAHTHSIDAETPAVTASQFGMVGKSPAMQHLLSEIALVAPSEATVLIHGDSGTGKELVARAIHASSARSEKPLVTLNCAALNESLLESELFGHEKGAFTGADKRREGRFVEADGGTLFLDEIGDISPMMQVRLLRAIQEREVQRVGSNQIISVDVRLIAATHRDLAAEVNAGRFRQDLYYRLNVVAIEVPSLRQRREDIPLLAGHFLQRFAERNRKAVKGFTPQAMDLLIHYDWPGNIRELENAVERAVVLLTGEYISERELPLAIASTPIPLGQSQDIQPLVEVEKEVILAALEKTGGNKTEAARQLGITRKTLLAKLSR”, for which the “soluble on expression in E. coli” value was “soluble”.
Regarding “DIVMTQSPDSLAVSPGERATINCKSSQNLLDSSFDTNTLAWYQQKPGQPPKLLIYWASSRESGVPDRFSGSGSGTDFTLTISSLQAEDVAVYYCQQYYSTPPTFGGGTKVEIKR”, the “soluble on expression in E. coli” value is on record as “soluble”.
Turning to “MSSTKQKALKKIAKCLELGNSANVNEAAQAIKMAHRLMLKYGLEKDDIEFIKMGKTQSIHLLPANVGSNILKIIRGINTRFGVEAVLLNHKGLKKVEFIGSADRAIFAAFAFDIVYREMNEQTGQFKNSFAGTGTGQLEVTKRVNSFLAGWIEGALEKLPVIAPDEDSANKINDYIDKEFKNIDRETFKQQLKEAMANITADYEKGLKKGRTISVNRPVAGAQAPKLLK”, the “soluble on expression in E. coli” value is given as “not soluble”.
For the sequence “MKPIDEFLYVKQNYLTSDTNSLMRLYFPIIGSDAAGLYQYFVSFFDNGEKKHKFSEILNHTQFGMACFENALSVLTAMDLLVFYRQENLYYIKLKAPLNAETFLKNAVYRHLLEQKIGQVAVEHLDLHLPREAQDLSKQFSEVFTAAGQLDLKTPKSKTDFDLDHFKDLMIRDNLQFTDEQTDVIALYILSEKYQLTWYETYLLAKETASNYRISLKRMQAKQEQRDHVDADNSFSKKEQIIIEEAKADKVEVFLAKIKKTRHAAITKDERSLLAELAEMGFLDEVINIMLLYTLDKTNTANINKTYIMKIANDFAFQKIDSAEKAVLKLRSFAERKTKQNQKKIKESSKNNVPEWSNQDYQNNTTADEQARLDEIKRKTLAR”, the “soluble on expression in E. coli” value is listed as “not soluble”.
Turning to “MSLDSHRISVLHVDDEPGLGETTAEFLRQQSDGFSVETATSTSEGLKRLTEAPFDCIVSDYDMADMDGIEFLRAVRAEYPDLPFVLFTGKGSEEVASEAVSAGVSDYLQKRGGTERYTLLANRITNLVTQHRAEERLRTRVQQQEAVADLGQYALTGCGLDALFERAVESVAAGLNTEYSKVLEYRPADNKFLLRAGVGWQSGLVGEAAVGAGEESQAGYTLQTEEPVVVEDLRTESRFSGPSLLLDHGVVSGISVIIGTTTEPWGVLGAHTSERRPFTKDDITFVRGVANTLTNAIEREQLEGTLRQAEQRYKTLLENFPGGGVFLFDDDLRYLIARGEGLSAFGLTPADVEGKTLAEVFPPAVVERQKPKYRAALDGETQVWTQEYEGKQYRLSTLPVTGSSDKQLGMVVSMDITGLSASEGHHHHHH”, the “soluble on expression in E. coli” value was “soluble”.
With “MAHHHHHHMRARRWWHGPYSLLYTLNLLLSLSLSPSHAGGGKEVSTTHTYTHPSTMQRGANVRPIKLAEKVFSTKTVCPTAASQLYVAHGLLGNSGNWATASRHLVEHSALKDKLRRAIAVDMRNHGSSTHSSDHTNAALASDLEALVLREQQELDRAFCDPSSCTTRNAILIGHSMGGLTVMGALLRRANEHHLLTSLVDHCDDVGSTSSYGAWPAEHRRQCIAGMRAVNEEFGFASSQPIAEVLFNNCRASSSLSTGSGNASRIPLLGRVAGAIIVDVTPTMRLGEQRSCADNVKETLERMTQVRLDEIHSYKDATAELIRVGMADEEMRAFVATNIALDPKDKSKPAQWKCNLPVLAGDYGSFQPSITSWFTSSATTMGPASSAAAPRLCTLPVMFVFGGESPYNEPDHRQHISRFFSNATQVEVAGAGHFVHYEKPKEFTDAVAPFIASLISQP”, the “soluble on expression in E. coli” value is on record as “not soluble”.
Turning to “MSIRFARKADCAAIAEIYNHAVLYTAAIWNDQTVDADNRIAWFEARTLAGYPVLVSEENGVVTGYASFGDWRSFDGFRHTVEHSVYVHPDHQGKGLGRKLLSRLIDEARDCGKHVMVAGIESQNQASLHLHQSLGFVVTAQMPQVGTKFGRWLDLTFMQLQLDERTEPDAIG”, the “soluble on expression in E. coli” value is reported as “soluble”.
As for “MDAQSYMPVPPGVGMEENFFSLDDILLSHERLPCRTESAFPRLGFLEKSSDSRDIPEGTKMEMPLWLAKGLYERKRRVLSVELPKVYREGWRTVFGADPTVVDLYKMGPYYYGLGSQMLHFESPENPEIANTILQTFIGRFRRTMDSSQNAYNEDTSALVERLDYLERSLFKAGQSGLNNFQLWEKGRSSHLTASSLVINYRKRKMTDLQA”, the “soluble on expression in E. coli” value is given as “not soluble”.
Regarding “MGSDKIHHHHHHMALRKNRGSRMQRNVIAMTEPKSLNSEQYRTIRTNIEFASVDRQMKSVMITSACPGEGKSTTAANLAVVFAQQGKKVLLIDADLRKPTVHTAFFLENTVGLTSVLLKKSSMEQAVQASNEKHLDVLTSGPIPPNPAELLSSKWMKELAYEACAAYDMVIFDTPPILAVADAQILGNVADGSVLVISSGKTEKEQAAKAKEALATCKSKLLGAIMNGKKLSKHSEYGYYGTKDNFMQK”, the “soluble on expression in E. coli” value is “not soluble”.
In the case of “IQRSIERALDFRKEVQRLREESDGWFFDIWQPEAVDKAECWPVAPGEDWHGFKDADADHMYLDPVKVTILTPGMDEQGNMDEEGIPAALVAKFLDERGVVVEKTGPYNLLFLFSIGIDKTRAMGLLRGLTEFKRAYDLNLRVKNMLPDLYAEDPDFYRNMRIQDLAQGIH”, the “soluble on expression in E. coli” value is reported as “not soluble”.
As to “MTTIVGVRAREVLDSRGFPTVEAEVELEGGARGRAMVPSGASTGTHEALELRDGGKRYLGKGVRRAVENVNERIAPELVGMDALDQEGVDRAMLELDGTPNKANLGANAVLAVSLAVARAAAEALGLPLYRYLGGVQGVTLPVPLMNVINGGKHADNRVDFQEFMLVPAGAGSFAEALRIGAEVFHTLKAVLKEKGYSTNVGDEGGFAPDLRSNEEAVELLLLAIERAGYTPGQEVSLALDPATSELYRDGKYHLEGEGKVLSSEEMVAFWEAWVEKYPIRSIEDGLAEDDWEGWRLLTERLGGKVQLVGDDLFVTNPERLRAGIERGVANAILVKVNQIGTLSETLEAIRLAQRSGYRAVISHRSGETEDSFIADLAVAVNAGQIKTGSLSRSDRLAKYNQLLRIEEELGRAARFLGYAAF”, the “soluble on expression in E. coli” value is reported as “soluble”.
As for “MGSDKIHHHHHHMGIRNSKTFTSTDIATYYDVSEDHYMYFWDLNQSHSLHYGYWDASTKTFREALANINRVLAEKASITAGTRVLDAGCGVGGSSIWLAKNKQANVTGITVSKKQAARANTSAAAVNPGGTAVFDVQDYTNTPYHSESFDVVWAIESVCHAANKEDFIKEAYRLLKPGGQLIMADFFIVKDGNADDQRSIDAWGHGWAVPFFEKKDAFQHMLLKAGFNTADMIDSTEHIRRSAKRLYYAFFPGWIISKLYNLVNRRTTEFSKNNVYTAYYQYKTLKKELWKYYIVHAKK”, the “soluble on expression in E. coli” value is “not soluble”.
